Assay results published in publication PMC8887125, “RBBP6 activates the pre-mRNA 3′ end processing machinery in humans” (Genes & Development, 2022).
Changes are numbered by the printed parent chain.

Legend:
CPSF73 = biological target: T1, CPSF73 (Homo sapiens, UniProt Q9UKF6); assay: in vitro SV40 pre-mRNA cleavage assay with purified proteins, dose response by denaturing gel; format: biochemical
T1 construct: gene CPSF3; CPSF73 within the purified recombinant seven-subunit CPSF complex (mPSF + mCF); with CPSF subunits (CPSF100, symplekin, CPSF160, WDR33, CPSF30, hFip1) with CStF, CFIIm and RBBP6 (1-335)

[1] = biological target: CPSF (seven subunits);RBBP6 1-335 (Homo sapiens;Homo sapiens, UniProt Q10570;Q9C0J8;O95639;Q6UN15-4;Q9UKF6;Q9P2I0;Q92797;Q7Z6E9 …, internal_change|); assay: size exclusion chromatography; 2.5 uM CPSF, 7.5 uM RBBP6, 5 uM RNA; RBBP6 substoichiometric; EMSA: 100 nM RNA, 15 min on ice, 10% native PAGE at 4 C (binding buffer not stated); SEC: HEPES-NaOH pH 8.0, 50 mM NaCl, 0.5 mM TCEP; pull-down: 20 mM HEPES-NaOH pH 8.0, 50 mM NaCl, 0.5 mM TCEP, 2 mM Mg(OAc)2, 4 C; conditions: protein: recombinant;recombinant; tags: StrepII on WDR33 and symplekin;C-terminal TEV-StrepII; copies: 1;1;1;1;1;1;1;1; label: 5'-FAM
RBBP6 Y228G = biological target: T2, RBBP6 Y228G (Homo sapiens, UniProt Q7Z6E9 1-335, Y228G); assay: EMSA; no CPSF; binding unaffected vs WT; EMSA: 100 nM RNA, 15 min on ice, 10% native PAGE at 4 C (binding buffer not stated); SEC: HEPES-NaOH pH 8.0, 50 mM NaCl, 0.5 mM TCEP; pull-down: 20 mM HEPES-NaOH pH 8.0, 50 mM NaCl, 0.5 mM TCEP, 2 mM Mg(OAc)2, 4 C; conditions: protein: recombinant; tags: C-terminal TEV-StrepII; label: 5'-FAM
T2 sequence: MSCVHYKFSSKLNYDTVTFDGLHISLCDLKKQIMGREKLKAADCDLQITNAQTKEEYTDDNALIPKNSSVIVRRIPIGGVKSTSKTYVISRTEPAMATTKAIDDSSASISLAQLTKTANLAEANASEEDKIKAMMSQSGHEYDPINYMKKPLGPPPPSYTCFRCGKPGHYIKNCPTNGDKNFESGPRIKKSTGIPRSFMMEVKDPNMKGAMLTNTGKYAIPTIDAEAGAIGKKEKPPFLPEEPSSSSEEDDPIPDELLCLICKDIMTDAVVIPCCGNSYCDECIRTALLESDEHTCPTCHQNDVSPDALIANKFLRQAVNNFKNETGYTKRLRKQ

RBBP6 P195G = biological target: T3, RBBP6 P195G (Homo sapiens, UniProt Q7Z6E9 1-335, P195G); assay: as above; conditions: protein: recombinant; tags: C-terminal TEV-StrepII; label: 5'-FAM
T3 sequence: T2 sequence with P195G, G228Y

RBBP6 D43K R74E = biological target: T4, RBBP6 D43K R74E (Homo sapiens, UniProt Q7Z6E9 1-335, D43K;R74E); assay: as above; conditions: protein: recombinant; tags: C-terminal TEV-StrepII; label: 5'-FAM
T4 sequence: T2 sequence with D43K, R74E, G228Y

RBBP6 1-335 = biological target: T5, RBBP6 1-335 (Homo sapiens, UniProt Q7Z6E9 1-335); assay: EMSA; no CPSF; 100 nM RNA; EMSA: 100 nM RNA, 15 min on ice, 10% native PAGE at 4 C (binding buffer not stated); SEC: HEPES-NaOH pH 8.0, 50 mM NaCl, 0.5 mM TCEP; pull-down: 20 mM HEPES-NaOH pH 8.0, 50 mM NaCl, 0.5 mM TCEP, 2 mM Mg(OAc)2, 4 C; conditions: protein: recombinant; tags: C-terminal TEV-StrepII; label: 5'-FAM
T5 sequence: T2 sequence with G228Y

[2] = biological target: T6, cleavage and polyadenylation specificity factor (CPSF), recombinant seven-subunit complex with hFip1 isoform 4 (human, UniProt Q10570 1-1443; Q9C0J8 1-576; O95639-2 1-244; Q6UN15 1-28; Q6UN15 44-393; Q9UKF6 …, F393K); assay: SEC; 2.5 µM CPSF, mCF or mCF_(symplekin ΔNTD) incubated with 10 µM SSU72 for 30 min on ice; Superose 6 Increase 3.2/300; HEPES-NaOH pH 8.0, 150 mM NaCl, 0.5 mM TCEP; peak fractions on SDS-PAGE; conditions: both partners purified
T6 construct: CPSF160, human; synthetic codon-optimised gene for the full-length protein; WDR33, human, residues 1-576 (unstructured region removed); CPSF30, human, isoform 2 (short isoform); synthetic gene for the isoform; hFip1, human; isoform 4 (UniProt Q6UN15-4) was built from residues 1-28 and 44-393 of the full-length protein; this piece is 1-28; second piece of isoform 4 (UniProt Q6UN15-4): residues …

[3] = biological target: T7, mammalian cleavage factor (mCF), wild type: CPSF73, CPSF100 and symplekin (human, UniProt Q9UKF6 1-684; Q9P2I0 1-782; Q92797 1-1274); assay: as above; conditions: both partners purified
T7 construct: CPSF73, human; synthetic gene for the full-length protein; CPSF100, human; symplekin, human; full coding region; also called mCFWT; source: Sf9 insect cells (baculovirus, pBig1), purified (Strep-Tactin, Resource Q, Superose 6); not shown: TEV site-StrepII (SII), C-terminal, kept; copies: + +
T7 sequence (Q9UKF6 whole entry, chain 1 of 3): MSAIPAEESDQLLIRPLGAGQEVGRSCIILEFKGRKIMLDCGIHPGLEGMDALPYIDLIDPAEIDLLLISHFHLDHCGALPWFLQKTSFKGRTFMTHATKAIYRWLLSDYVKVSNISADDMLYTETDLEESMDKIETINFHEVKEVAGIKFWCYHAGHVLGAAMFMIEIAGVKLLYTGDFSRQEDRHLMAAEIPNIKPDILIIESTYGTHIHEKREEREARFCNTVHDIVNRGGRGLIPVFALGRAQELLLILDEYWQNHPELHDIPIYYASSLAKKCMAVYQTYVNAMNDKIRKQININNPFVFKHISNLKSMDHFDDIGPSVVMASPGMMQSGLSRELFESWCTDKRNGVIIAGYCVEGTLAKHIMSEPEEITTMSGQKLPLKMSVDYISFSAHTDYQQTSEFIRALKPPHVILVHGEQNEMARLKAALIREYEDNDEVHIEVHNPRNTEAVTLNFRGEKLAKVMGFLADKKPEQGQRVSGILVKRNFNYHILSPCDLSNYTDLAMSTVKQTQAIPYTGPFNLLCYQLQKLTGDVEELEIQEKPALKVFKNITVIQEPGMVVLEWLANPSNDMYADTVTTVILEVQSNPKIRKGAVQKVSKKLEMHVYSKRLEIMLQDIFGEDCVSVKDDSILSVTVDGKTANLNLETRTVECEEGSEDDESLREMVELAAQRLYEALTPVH
T7 sequence (Q9P2I0 whole entry, chain 2 of 3): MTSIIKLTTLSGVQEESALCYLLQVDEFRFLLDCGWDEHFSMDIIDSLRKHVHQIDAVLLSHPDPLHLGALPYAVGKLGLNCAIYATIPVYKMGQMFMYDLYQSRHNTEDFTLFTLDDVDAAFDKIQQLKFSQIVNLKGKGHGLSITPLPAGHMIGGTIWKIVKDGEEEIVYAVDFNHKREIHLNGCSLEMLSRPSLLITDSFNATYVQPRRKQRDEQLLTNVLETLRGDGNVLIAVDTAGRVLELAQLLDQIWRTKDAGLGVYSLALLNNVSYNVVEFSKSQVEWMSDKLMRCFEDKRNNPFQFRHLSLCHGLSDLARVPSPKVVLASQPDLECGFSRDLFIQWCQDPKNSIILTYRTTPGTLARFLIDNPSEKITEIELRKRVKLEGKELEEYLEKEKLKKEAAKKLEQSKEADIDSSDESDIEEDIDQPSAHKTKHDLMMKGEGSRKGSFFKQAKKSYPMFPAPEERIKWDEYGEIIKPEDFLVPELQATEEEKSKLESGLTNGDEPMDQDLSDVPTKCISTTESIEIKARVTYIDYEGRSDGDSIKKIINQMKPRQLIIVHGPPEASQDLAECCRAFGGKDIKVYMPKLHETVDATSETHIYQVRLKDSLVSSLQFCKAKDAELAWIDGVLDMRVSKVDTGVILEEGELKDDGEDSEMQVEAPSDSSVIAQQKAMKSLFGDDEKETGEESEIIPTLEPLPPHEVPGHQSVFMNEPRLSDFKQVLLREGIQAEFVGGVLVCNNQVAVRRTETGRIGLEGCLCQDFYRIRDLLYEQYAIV
T7 sequence (Q92797 whole entry, chain 3 of 3): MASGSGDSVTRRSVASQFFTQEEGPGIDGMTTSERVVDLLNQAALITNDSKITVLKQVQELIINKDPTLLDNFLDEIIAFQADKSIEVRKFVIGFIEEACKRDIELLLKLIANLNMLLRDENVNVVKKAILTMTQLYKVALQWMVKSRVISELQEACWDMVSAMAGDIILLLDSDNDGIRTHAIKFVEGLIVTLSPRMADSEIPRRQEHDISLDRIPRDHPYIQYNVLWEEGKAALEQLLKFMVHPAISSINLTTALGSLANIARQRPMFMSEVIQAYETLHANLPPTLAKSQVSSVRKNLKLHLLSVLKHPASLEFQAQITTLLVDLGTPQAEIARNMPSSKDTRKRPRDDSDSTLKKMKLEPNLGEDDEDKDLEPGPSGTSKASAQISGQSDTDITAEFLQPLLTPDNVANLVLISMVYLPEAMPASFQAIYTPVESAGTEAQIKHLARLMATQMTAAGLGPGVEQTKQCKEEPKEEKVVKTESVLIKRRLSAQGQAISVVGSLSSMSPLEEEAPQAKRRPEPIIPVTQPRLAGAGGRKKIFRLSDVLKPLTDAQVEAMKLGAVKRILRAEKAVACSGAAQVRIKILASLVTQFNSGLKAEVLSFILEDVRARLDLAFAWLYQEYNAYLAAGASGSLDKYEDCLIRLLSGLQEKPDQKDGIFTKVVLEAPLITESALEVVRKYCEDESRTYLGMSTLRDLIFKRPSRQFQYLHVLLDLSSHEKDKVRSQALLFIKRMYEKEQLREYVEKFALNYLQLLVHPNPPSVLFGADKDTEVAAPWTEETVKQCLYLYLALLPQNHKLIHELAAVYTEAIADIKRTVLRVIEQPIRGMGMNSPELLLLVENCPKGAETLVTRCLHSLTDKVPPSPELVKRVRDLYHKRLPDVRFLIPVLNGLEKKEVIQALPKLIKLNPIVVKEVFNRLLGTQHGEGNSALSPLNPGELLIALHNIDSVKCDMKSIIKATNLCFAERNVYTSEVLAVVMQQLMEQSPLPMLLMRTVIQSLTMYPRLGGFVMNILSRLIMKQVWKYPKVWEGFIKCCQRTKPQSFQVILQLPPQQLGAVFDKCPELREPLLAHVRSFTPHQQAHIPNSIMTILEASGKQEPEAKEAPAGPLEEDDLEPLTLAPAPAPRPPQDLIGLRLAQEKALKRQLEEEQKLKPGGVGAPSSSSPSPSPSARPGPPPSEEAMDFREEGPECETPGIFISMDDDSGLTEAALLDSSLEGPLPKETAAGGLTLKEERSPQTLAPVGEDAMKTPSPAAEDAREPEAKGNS

`CN1CCN(CCOc2c(Cl)cc(C(=O)N[C@@H](Cc3ccccc3)C(=O)O)c(O)c2Cl)CC1` [JTE-607 acid] was tested, and the IC50 (CPSF73) was about 350 nM.

AUGAUCUAGGAGACACAAUAAAGGCAAUGUUUUUAUUUGUA (ssRNA) [5'-FAM-L3 41-nt RNA]: binds [1]; binds (RBBP6 Y228G); binds (RBBP6 P195G). AUGAUCUAGGAGACACAAUAAAGGCAAUGUUUUUAUUUGUA (ssRNA) [5'-FAM-L3 41-nt RNA]: binds (RBBP6 D43K R74E); binds (RBBP6 1-335).

B1: SSU72 (enzyme, human, UniProt Q9NP77 1-194, looked up)
chain: MPSSPLRVAVVCSSNQNRSMEAHNILSKRGFSVRSFGTGTHVKLPGPAPDKPNVYDFKTTYDQMYNDLLRKDKELYTQNGILHMLDRNKRIKPRPERFQNCKDLFDLILTCEERVYDQVVEDLNSREQETCQPVHVVNVDIQDNHEEATLGAFLICELCQCIQHTEDMENEIDELLQEFEEKSGRTFLHTVCFY
notes: SSU72, human; the coding region amplified from the synthetic full-length gene; also called human SSU72; phosphatase SSU72; source: E. coli BL21(DE3) Star, purified (HisTrap, 3C cleavage, Superdex 75); not shown: His6, N-terminal, cleaved
B1: binds [2]; binds [3].
